The source of these data is publication PMC11752098.

B1: wild-type GABRA2 (α2 subunit of the γ-aminobutyric acid A receptor), FLAG-tagged [human] / GABRG2 (γ2 subunit of the GABA-A receptor) [human (endogenous in 293T)] (parent)
chain 1: NIQEDEAKNNITIFTRILDRLLDGYDNRLRPGLGDSITEVFTNIYVTSFGPVSDTDMEYTIDVFFRQKWKDERLKFKGPMNILRLNNLMASKIWTPDTFFHNGKKSVAHNMTMPNKLLRIQDDGTLLYTMRLTVQAECPMHLEDFPMDAHSCPLKFGSYAYTTSEVTYIWTYNASDSVQVAPDGSRLNQYDLLGQSIGKETIKSSTGEYTVMTAHFHLKRKIGYFVIQTYLPCIMTVILSQVSFWLNRESVPARTVFGVTTVLTMTTLSISARNSLPKVAYATAMDWFIAVCYAFVFSALIEFATVNYFTKRGWAWDGKSVVNDKKKEKASVMIQNNAYAVAVANYAPNLSKDPVLSTISKSATTPEPNKKPENKPAEAKKTFNSVSKIDRMSRIVFPVLFGTFNLVYWATYLNREPVLGVSP
chain 2: QKSDDDYEDYASNKTWVLTPKVPEGDVTVILNNLLEGYDNKLRPDIGVKPTLIHTDMYVNSIGPVNAINMEYTIDIFFAQTWYDRRLKFNSTIKVLRLNSNMVGKIWIPDTFFRNSKKADAHWITTPNRMLRIWNDGRVLYTLRLTIDAECQLQLHNFPMDEHSCPLEFSSYGYPREEIVYQWKRSSVEVGDTRSWRLYQFSFVGLRNTTEVVKTTSGDYVVMSVYFDLSRRMGYFTIQTYIPCTLIVVLSWVSFWINKDAVPARTSLGITTVLTMTTLSTIARKSLPKVSYVTAMDLFVSVCFIFVFSALVEYGTLHYFVSNRKPSKDKDKKKKNPLLRMFSFKAPTIDIRPRSATIQMNNATHLQERDEEYGYECLDGKDCASFFCCFEDCRTGAWRHGRIHIRIAKMDSYARIFFPTAFCLFNLVYWVSYLYL
B2: wild-type GABRA2 (α2 subunit of the γ-aminobutyric acid A receptor), FLAG-tagged [human] / GABRB3 (β3 subunit of the GABA-A receptor) [human (endogenous in 293T)] (parent)
chain 1: B1 chain 1
chain 2: QSVNDPGNMSFVKETVDKLLKGYDIRLRPDFGGPPVCVGMNIDIASIDMVSEVNMDYTLTMYFQQYWRDKRLAYSGIPLNLTLDNRVADQLWVPDTYFLNDKKSFVHGVTVKNRMIRLHPDGTVLYGLRITTTAACMMDLRRYPLDEQNCTLEIESYGYTTDDIEFYWRGGDKAVTGVERIELPQFSIVEHRLVSRNVVFATGAYPRLSLSFRLKRNIGYFILQTYMPSILITILSWVSFWINYDASAARVALGITTVLTMTTINTHLRETLPKIPYVKAIDMYLMGCFVFVFLALLEYAFVNYIFFGRGPQRQKKLAEKTAKAKNDRSKSESNRVDAHGNILLTSLEVHNEMNEVSGGIGDTRNSAISFDNSGIQYRKQSMPREGHGRFLGDRSLPHKKTHLRRRSSQLKIKIPDLTDVNAIDRWSRIVFPFTFSLFNLVYWLYYVN

The variants in the first experiment derive from B1. The experiment in a line: co-immunoprecipitation (anti-FLAG beads) with Western blot quantification. The settings on record: with GABRG2 (γ2 subunit of the GABA-A receptor) [human (endogenous in 293T)]; 293T cells transfected with FLAG-tagged GABRA2-WT or GABRA2-MUT; parent: 1; read off a plot.
Consider chain 1 NIQEDEAKNNITIFTRILDRLLDGYDNRLRPGLGDSITEVFTNIYVTSFGPVSDTDMEYTIDVFFRQKWKDERLKFKGPMNILRLNNLMASKIWTPDTFFHNGKKSVAHNMTMPNKLLRIQDDGTLLYTMRLTVQAECPMHLEDFPMDAHSCPLKFGSYAYTTSEVTYIWTYNASDSVQVAPDGSRLNQYDLLGQSIGKETIKSSTGEYTVMTAHFHLKRKIGYFVIQTYLPCIMTVILSQVSFWLNRESVPARTVFGVTTVLTMTTLSISARNSLPKVVYATAMDWFIAVCYAFVFSALIEFATVNYFTKRGWAWDGKSVVNDKKKEKASVMIQNNAYAVAVANYAPNLSKDPVLSTISKSATTPEPNKKPENKPAEAKKTFNSVSKIDRMSRIVFPVLFGTFNLVYWATYLNREPVLGVSP [chain 1 A280V], for which the ratio to parent came to 0.88.

Variants of B2 are the subject of a further experiment. Described as above. The settings on record: with GABRB3 (β3 subunit of the GABA-A receptor) [human (endogenous in 293T)]; 293T cells transfected with FLAG-tagged GABRA2-WT or GABRA2-MUT; parent: 1; read off a plot.
With chain 1 NIQEDEAKNNITIFTRILDRLLDGYDNRLRPGLGDSITEVFTNIYVTSFGPVSDTDMEYTIDVFFRQKWKDERLKFKGPMNILRLNNLMASKIWTPDTFFHNGKKSVAHNMTMPNKLLRIQDDGTLLYTMRLTVQAECPMHLEDFPMDAHSCPLKFGSYAYTTSEVTYIWTYNASDSVQVAPDGSRLNQYDLLGQSIGKETIKSSTGEYTVMTAHFHLKRKIGYFVIQTYLPCIMTVILSQVSFWLNRESVPARTVFGVTTVLTMTTLSISARNSLPKVVYATAMDWFIAVCYAFVFSALIEFATVNYFTKRGWAWDGKSVVNDKKKEKASVMIQNNAYAVAVANYAPNLSKDPVLSTISKSATTPEPNKKPENKPAEAKKTFNSVSKIDRMSRIVFPVLFGTFNLVYWATYLNREPVLGVSP [chain 1 A280V], the ratio to parent was 0.87.
